Legend:
purified protein [1] = substrate: O=C1CCCC/C1=C\c1ccccc1; experiment: purified protein; type: biochemical, Bacillus subtilis; conditions: 1.0 mM NADPH, 10 μM enzyme, PBS 100 mM, pH 7.5, 30 °C
purified protein [2] = substrate: O=C1CCC/C1=C\c1ccccc1; experiment: purified protein; type: biochemical, Bacillus subtilis; conditions: 1.0 mM NADPH, 10 μM enzyme, PBS 100 mM, pH 7.5, 30 °C

Row | Protein | Km (purified protein [1]) [mM] | kcat (purified protein [1]) [s⁻¹] | kcat/Km (purified protein [1]) [M⁻¹ s⁻¹] | Km (purified protein [2]) [mM] | kcat (purified protein [2]) [s⁻¹] | kcat/Km (purified protein [2]) [M⁻¹ s⁻¹]
1 | YqjM (Bacillus subtilis subsp. subtilis str. 168) (protein, ene-reductase, FMN enzyme) ARKLFTPITIKDMTLKNRIVMSPMCMYSSHEKDGKLTPFHMAHYISRAIGQVGLIIVEASAVNPQGRITDQDLGIWSDEHIEGFAKLTEQVKEQGSKIGIQLAHAGRKAELEGDIFAPSAIAFDEQSATPVEMSAEKVKETVQEFKQAAARAKEAGFDVIEIHAAHGYLIHEFLSPLSNHRTDEYGGSPENRYRFLREIIDEVKQVWDGPLFVRVSASDYTDKGLDIADHIGFAKWMKEQGVDLIDCSSGALVHADINVFPGYQVSFAEKIREQADMATGAVGMITDGSMAEEILQNGRADLIFIGRELLRDPFFARTAAKQLNTEIPAPVQYERGW | 7.98 ± 0.18 | 0.19 ± 0.009 | 20 | 8.35 ± 0.2 | 0.23 ± 0.005 | 30
2 | YqjM (Bacillus subtilis subsp. subtilis str. 168; I69G) (protein, ene-reductase, FMN enzyme) ARKLFTPITIKDMTLKNRIVMSPMCMYSSHEKDGKLTPFHMAHYISRAIGQVGLIIVEASAVNPQGRGTDQDLGIWSDEHIEGFAKLTEQVKEQGSKIGIQLAHAGRKAELEGDIFAPSAIAFDEQSATPVEMSAEKVKETVQEFKQAAARAKEAGFDVIEIHAAHGYLIHEFLSPLSNHRTDEYGGSPENRYRFLREIIDEVKQVWDGPLFVRVSASDYTDKGLDIADHIGFAKWMKEQGVDLIDCSSGALVHADINVFPGYQVSFAEKIREQADMATGAVGMITDGSMAEEILQNGRADLIFIGRELLRDPFFARTAAKQLNTEIPAPVQYERGW | 3.48 ± 0.11 | 0.43 ± 0.01 | 120 | 3.56 ± 0.08 | 0.39 ± 0.012 | 110
3 | YqjM (Bacillus subtilis subsp. subtilis str. 168; C26A/I69Y) (protein, ene-reductase, FMN enzyme) ARKLFTPITIKDMTLKNRIVMSPMAMYSSHEKDGKLTPFHMAHYISRAIGQVGLIIVEASAVNPQGRYTDQDLGIWSDEHIEGFAKLTEQVKEQGSKIGIQLAHAGRKAELEGDIFAPSAIAFDEQSATPVEMSAEKVKETVQEFKQAAARAKEAGFDVIEIHAAHGYLIHEFLSPLSNHRTDEYGGSPENRYRFLREIIDEVKQVWDGPLFVRVSASDYTDKGLDIADHIGFAKWMKEQGVDLIDCSSGALVHADINVFPGYQVSFAEKIREQADMATGAVGMITDGSMAEEILQNGRADLIFIGRELLRDPFFARTAAKQLNTEIPAPVQYERGW | 2.98 ± 0.1 | 1.12 ± 0.02 | 380 | 2.65 ± 0.02 | 0.89 ± 0.023 | 340
4 | YqjM (Bacillus subtilis subsp. subtilis str. 168; C26G/I69Y/Y169F) (protein, ene-reductase, FMN enzyme) ARKLFTPITIKDMTLKNRIVMSPMGMYSSHEKDGKLTPFHMAHYISRAIGQVGLIIVEASAVNPQGRYTDQDLGIWSDEHIEGFAKLTEQVKEQGSKIGIQLAHAGRKAELEGDIFAPSAIAFDEQSATPVEMSAEKVKETVQEFKQAAARAKEAGFDVIEIHAAHGFLIHEFLSPLSNHRTDEYGGSPENRYRFLREIIDEVKQVWDGPLFVRVSASDYTDKGLDIADHIGFAKWMKEQGVDLIDCSSGALVHADINVFPGYQVSFAEKIREQADMATGAVGMITDGSMAEEILQNGRADLIFIGRELLRDPFFARTAAKQLNTEIPAPVQYERGW | – | – | – | 1.69 ± 0.01 | 0.56 ± 0.009 | 330
5 | YqjM (Bacillus subtilis subsp. subtilis str. 168; C26G/I69Y) (protein, ene-reductase, FMN enzyme) ARKLFTPITIKDMTLKNRIVMSPMGMYSSHEKDGKLTPFHMAHYISRAIGQVGLIIVEASAVNPQGRYTDQDLGIWSDEHIEGFAKLTEQVKEQGSKIGIQLAHAGRKAELEGDIFAPSAIAFDEQSATPVEMSAEKVKETVQEFKQAAARAKEAGFDVIEIHAAHGYLIHEFLSPLSNHRTDEYGGSPENRYRFLREIIDEVKQVWDGPLFVRVSASDYTDKGLDIADHIGFAKWMKEQGVDLIDCSSGALVHADINVFPGYQVSFAEKIREQADMATGAVGMITDGSMAEEILQNGRADLIFIGRELLRDPFFARTAAKQLNTEIPAPVQYERGW | 1.1 ± 0.03 | 1.86 ± 0.05 | 1690 | 1.21 ± 0.01 | 1.59 ± 0.03 | 1310
6 | YqjM (Bacillus subtilis subsp. subtilis str. 168; C26G/I69Y/Y28F) (protein, ene-reductase, FMN enzyme) ARKLFTPITIKDMTLKNRIVMSPMGMFSSHEKDGKLTPFHMAHYISRAIGQVGLIIVEASAVNPQGRYTDQDLGIWSDEHIEGFAKLTEQVKEQGSKIGIQLAHAGRKAELEGDIFAPSAIAFDEQSATPVEMSAEKVKETVQEFKQAAARAKEAGFDVIEIHAAHGYLIHEFLSPLSNHRTDEYGGSPENRYRFLREIIDEVKQVWDGPLFVRVSASDYTDKGLDIADHIGFAKWMKEQGVDLIDCSSGALVHADINVFPGYQVSFAEKIREQADMATGAVGMITDGSMAEEILQNGRADLIFIGRELLRDPFFARTAAKQLNTEIPAPVQYERGW | – | – | – | 2.21 ± 0.02 | 0.49 ± 0.012 | 220
7 | YqjM (Bacillus subtilis subsp. subtilis str. 168; I69Y) (protein, ene-reductase, FMN enzyme) ARKLFTPITIKDMTLKNRIVMSPMCMYSSHEKDGKLTPFHMAHYISRAIGQVGLIIVEASAVNPQGRYTDQDLGIWSDEHIEGFAKLTEQVKEQGSKIGIQLAHAGRKAELEGDIFAPSAIAFDEQSATPVEMSAEKVKETVQEFKQAAARAKEAGFDVIEIHAAHGYLIHEFLSPLSNHRTDEYGGSPENRYRFLREIIDEVKQVWDGPLFVRVSASDYTDKGLDIADHIGFAKWMKEQGVDLIDCSSGALVHADINVFPGYQVSFAEKIREQADMATGAVGMITDGSMAEEILQNGRADLIFIGRELLRDPFFARTAAKQLNTEIPAPVQYERGW | 4.56 ± 0.12 | 0.87 ± 0.012 | 190 | 4.25 ± 0.09 | 0.65 ± 0.015 | 150
